Assay results taken from the supplement of paper PMC7877785.
± gives the uncertainty stated by the source.

Experiment: self-splicing fitness, log relative to wild type (ln ratio); higher = more splicing; Tetrahymena group I intron in knt gene, E. coli kanamycin selection, DiMSum; sequences stand for … in CUCUCU…GGAGGGAAAAGUUAUCAGGCAUGCACCUGGUAGCUAGUCUUUAAACCAAUAGAUUGCAUCGGUUUAAAAGGCAAGACCGUCAAAUUGCGGGAAAGGGGUCAACAGCCGUUCAGUACCAAGUCUCAGGGGAAACUUUGAGAUGGCCUUGCAAAGGGUAUGGUAAUAAGCUGACGGACAUGGUCCUAACCACGCAGCCAAGUCCUAAGUCAACAGAUCUUCUGUUGAUAUGGAUGCAGUUCACAGACUAAAUGUCGGUCGGGGAAGAUGUAUUCUUCUCAUAAGAUAUAGUCGGACCUCUCCUUAAUGGGAGCUAGCGGAUGAAGUGAUGCAACACUGGAGCCGCUGGGAACUAAUUUGUAUGCGAAAGUAUAUUGAUUAGUUUUGGAGUACUCGUGGUCG
Outline: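 A randomised library covering all eight P1ex-region intron nucleotides was built with the intron in the knt kanamycin-resistance gene on pET-22b(+) and held in E. coli BL21(DE3). Cells were grown overnight at 37°C or 30°C on LB agar, with or without 25 μg/mL kanamycin, plus 100 μg/mL carbenicillin, 50 μM IPTG and 0.2% rhamnose, and pooled colonies were amplicon-sequenced on an Illumina HiSeq 2500. DiMSum fitness is the error-weighted combination of wild-type-normalised replicate fold changes, kanamycin versus none.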

Sequence	self-splicing fitness (ln) (30 °C)	self-splicing fitness (ln) (37 °C)
AGGUAGCAAUAUUACGCAAA	-2.317 ± 0.023	-1.37 ± 0.035
GGUCAGCAAUAUUACGUAUG	-1.66 ± 0.085	0.0829 ± 0.1
ACCAAGCAAUAUUACGUCGU	-2.34 ± 0.076	-1.88 ± 0.11
CCACAGCAAUAUUACGCCGU	-2.9 ± 0.24	-1.87 ± 0.24
CGCAAGCAAUAUUACGCUUG	-2.74 ± 0.2	-1.87 ± 0.21
UACCAGCAAUAUUACGGUGA	-0.536 ± 0.057	0.0523 ± 0.075
CGUGAGCAAUAUUACGUCCC	–	-1.09 ± 0.42
CGUAAGCAAUAUUACGUCAC	–	-2.59 ± 0.44
CCCGAGCAAUAUUACGUGCC	-4.31 ± 0.3	-3.26 ± 0.37
CCCCAGCAAUAUUACGACGG	-3.1 ± 0.17	-3.42 ± 0.3
GCCUAGCAAUAUUACGAUGA	-2.48 ± 0.16	-1.4 ± 0.14
AUCAAGCAAUAUUACGGGAC	-2.23 ± 0.081	-1.11 ± 0.1
UGUCAGCAAUAUUACGGCCC	-1.78 ± 0.41	-0.199 ± 0.4
AGCAAGCAAUAUUACGACGG	-2.35 ± 0.16	-0.575 ± 0.13
AUGCAGCAAUAUUACGUCCA	-1.72 ± 0.11	-0.786 ± 0.11
GGCGAGCAAUAUUACGUACA	-1 ± 0.18	0.151 ± 0.15
CACUAGCAAUAUUACGACAG	-0.114 ± 0.076	0.0358 ± 0.079
UCAUAGCAAUAUUACGUUAG	-2.9 ± 0.25	-1.66 ± 0.19
GUGAAGCAAUAUUACGUAAC	-1.99 ± 0.26	-1.23 ± 0.31
GGGGAGCAAUAUUACGAUUA	-2.23 ± 0.23	-1.58 ± 0.22
AAUUAGCAAUAUUACGCGGC	-2.28 ± 0.39	-1.32 ± 0.3
CCUUAGCAAUAUUACGGCUG	-3.9 ± 0.19	-2.39 ± 0.17
UUUUAGCAAUAUUACGACUC	-2.56 ± 0.46	–
ACUAAGCAAUAUUACGCCAC	-2.45 ± 0.38	–
CGCGAGCAAUAUUACGCGCU	–	-1.67 ± 0.32
UCAAAGCAAUAUUACGUUGA	-3.43 ± 0.14	-2.66 ± 0.18
AUUCAGCAAUAUUACGAUGA	-0.652 ± 0.14	-0.36 ± 0.15

Sequence	self-splicing fitness (ln) (30 °C)	self-splicing fitness (ln) (37 °C)
AGUUAGCAAUAUUACGAGAU	-2.15 ± 0.18	-1.17 ± 0.16
AUGUAGCAAUAUUACGCCUC	-2.83 ± 0.41	-1.61 ± 0.32
CACAAGCAAUAUUACGAUUU	-4.17 ± 0.18	-2.56 ± 0.15
CUGGAGCAAUAUUACGAACA	-2.85 ± 0.42	-1.64 ± 0.48
AUCUAGCAAUAUUACGUGGA	-2.71 ± 0.24	-2.91 ± 0.26
AUAUAGCAAUAUUACGACUA	-0.8 ± 0.3	-0.351 ± 0.29
GUCGAGCAAUAUUACGCCUC	-1.51 ± 0.23	-0.868 ± 0.33
GGCAAGCAAUAUUACGUCAA	-1.84 ± 0.14	-0.756 ± 0.12
CAGCAGCAAUAUUACGUACC	-3.85 ± 0.16	-2.46 ± 0.16
CACCAGCAAUAUUACGGACA	-2.01 ± 0.1	-0.603 ± 0.086
GGAAAGCAAUAUUACGAGUC	-0.868 ± 0.11	-1.48 ± 0.12
AGUCAGCAAUAUUACGCCGU	-1.26 ± 0.15	-0.55 ± 0.21
UCAAAGCAAUAUUACGUCCC	-0.356 ± 0.2	-1.14 ± 0.47
UCGGAGCAAUAUUACGGUCC	-2.33 ± 0.4	-1.73 ± 0.49
CCUAAGCAAUAUUACGGGUG	-2.47 ± 0.077	-1.11 ± 0.073
UAUUAGCAAUAUUACGUAUG	-1.65 ± 0.15	-0.344 ± 0.17
CUUUAGCAAUAUUACGGAAC	–	-1.93 ± 0.48
CCCGAGCAAUAUUACGACCA	–	-1.35 ± 0.31
GUCUAGCAAUAUUACGGACG	-0.561 ± 0.15	-0.711 ± 0.2
UCUCAGCAAUAUUACGAGUA	-1.35 ± 0.066	-0.132 ± 0.077
CUCUAGCAAUAUUACGUCGA	-4.25 ± 0.42	-0.879 ± 0.19
GACCAGCAAUAUUACGGAAC	-0.88 ± 0.098	-0.504 ± 0.11
GCGAAGCAAUAUUACGAUUA	-1.52 ± 0.3	-0.0699 ± 0.23
AUGUAGCAAUAUUACGUCGA	-3.98 ± 0.26	-2.06 ± 0.18
GUCUAGCAAUAUUACGGAUA	-1.26 ± 0.099	-0.0363 ± 0.11
CCAGAGCAAUAUUACGUACU	–	-1.97 ± 0.18
GGGGAGCAAUAUUACGGUAG	-3.09 ± 0.27	–

Sequence	self-splicing fitness (ln) (30 °C)	self-splicing fitness (ln) (37 °C)
CACUAGCAAUAUUACGUAAA	-3.48 ± 0.18	-2.61 ± 0.2
CUUUAGCAAUAUUACGUCGC	–	-1.58 ± 0.34
GGAAAGCAAUAUUACGGCGC	-0.392 ± 0.16	0.131 ± 0.21
UAGGAGCAAUAUUACGCUCC	–	-2.28 ± 0.25
CUUGAGCAAUAUUACGCUUA	-2.82 ± 0.29	-3.02 ± 0.37
GUGAAGCAAUAUUACGGCUG	-0.541 ± 0.082	0.0938 ± 0.11
AGACAGCAAUAUUACGCUCA	-0.572 ± 0.096	0.589 ± 0.12
UUUUAGCAAUAUUACGCGUA	-1.57 ± 0.13	-1.22 ± 0.12
GAGGAGCAAUAUUACGACUC	-3.04 ± 0.27	-2.25 ± 0.31
GACCAGCAAUAUUACGCCGG	-2.59 ± 0.16	-2.58 ± 0.29
UACAAGCAAUAUUACGCCCG	0.87 ± 0.18	0.761 ± 0.23
GGAUAGCAAUAUUACGAAUA	–	0.53 ± 0.21
AUGAAGCAAUAUUACGCACU	0.079 ± 0.14	0.992 ± 0.22
CCUUAGCAAUAUUACGUUUA	-3.23 ± 0.26	-2.21 ± 0.2
CGCAAGCAAUAUUACGUACG	-2.03 ± 0.086	-0.768 ± 0.1
CAAAAGCAAUAUUACGUUAC	-3.12 ± 0.22	-2.33 ± 0.23
AUUUAGCAAUAUUACGUACC	-0.819 ± 0.45	-1.04 ± 0.31
UGGCAGCAAUAUUACGCAAG	-3.83 ± 0.18	-2.44 ± 0.18
CUUCAGCAAUAUUACGUGCC	-3.44 ± 0.31	–
GGAAAGCAAUAUUACGCGGA	-1.96 ± 0.13	-0.353 ± 0.1
UGACAGCAAUAUUACGCUUG	-0.879 ± 0.074	-0.702 ± 0.11
CUGUAGCAAUAUUACGAAUU	–	-2.7 ± 0.3
GGACAGCAAUAUUACGAAAA	-1.42 ± 0.19	-1.36 ± 0.15
GAGAAGCAAUAUUACGCACA	-0.725 ± 0.19	0.27 ± 0.25
AGGGAGCAAUAUUACGGUCU	-1.67 ± 0.21	-0.696 ± 0.21
UUGAAGCAAUAUUACGCCGA	0.633 ± 0.2	0.737 ± 0.25
